Measurements as given in publication PMC3897223 (Biochemistry, 2013).
Where no end group is shown, it is not given here.

Molecular target: T1, AtsB, anaerobic sulfatase maturating enzyme from Klebsiella pneumoniae, wild type, reconstituted (Klebsiella pneumoniae, UniProt Q9X758 1-395)
T1 sequence (looked up): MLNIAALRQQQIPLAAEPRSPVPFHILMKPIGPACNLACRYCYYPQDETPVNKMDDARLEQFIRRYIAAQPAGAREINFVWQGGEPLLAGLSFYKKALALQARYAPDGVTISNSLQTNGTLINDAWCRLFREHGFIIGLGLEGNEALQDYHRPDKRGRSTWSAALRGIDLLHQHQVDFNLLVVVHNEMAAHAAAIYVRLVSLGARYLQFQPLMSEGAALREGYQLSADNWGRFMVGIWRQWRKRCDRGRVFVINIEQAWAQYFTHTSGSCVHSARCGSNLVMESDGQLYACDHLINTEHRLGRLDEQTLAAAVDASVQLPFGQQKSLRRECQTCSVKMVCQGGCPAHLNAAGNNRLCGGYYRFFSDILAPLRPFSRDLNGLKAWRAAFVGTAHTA
Assay: SEC

Ac-YYTSPMSAPARSMLLTGN [Kp18Ser peptide substrate]
binding result: binds
